Source: publication PMC5278397, “Discovery of a junctional epitope antibody that stabilizes IL-6 and gp80 protein:protein interaction and modulates its downstream signaling” (Scientific Reports, 2017)
Numbering of substitutions follows the chain as printed. Names and notes keep the numbering of the source. Each block holds one binder with its values, some of them ahead of it.

Legend:
IL-6 = target: T1, IL-6 (UniProt P05231 49-212); test: SPR; IL-6 amine-coupled on CM5; gp80 (gp80V4) injected at 50 nM, 30 μl/min, 180 s, dissociation 360 s; 25 °C, HBS-P+; BIAcore 3000; without VHH6; details: both partners purified
T1 construct: interleukin-6 (IL-6); Two in-house constructs are named (IL-6 and IL-6S21); IL-6 bought from R&D Systems was used 'for in vitro experiments'; source: E. coli, produced in house, purified

[1] = target: T2, IL-6–gp80 complex (IL-6 with gp80V4) (Homo sapiens, UniProt P05231;PDB); test: SPR; His-tagged VHH6 or mutants captured from 1:5 diluted supernatants on a nickel charged NTA chip; equimolar mixture of IL-6 and gp80 (50 nM each) injected for 300 s at 10 μl/min, dissociation 300 s; BIAcore 3000; 25 °C, HBS-P+; details: one partner purified
T2 construct: interleukin-6 (IL-6), as m2; also called equimolar mixture of IL-6 and gp80

IL-6-NT647 = target: T3, IL-6-NT647 (UniProt P05231, NT647 dye on primary amines of lysine residues (NHS ester)); test: MST; IL-6 or gp80 labelled with NT647, alone (VHH6 titrated up to 20 μM) or mixed with the unlabelled partner (10 nM IL-6NT647 and 20 nM gp80; VHH6 titrated in); Monolith NT.115, red channel; details: both partners purified
T3 construct: interleukin-6 (IL-6); also called IL-6 labelled with NT647; source: labelled with the Monolith labelling Red NHS kit

IL-6-NT647+gp80 = target: T4, IL-6-NT647+gp80 (Homo sapiens, UniProt P05231;P08887, NT647 dye on primary amines of lysine residues (NHS ester)); test: as above; details: both partners purified
T4 construct: interleukin-6 (IL-6), as m8; gp80, as m5; also called mixture of IL-6-NT647 and gp80; source: mixture of 10 nM IL-6NT647 and 20 nM gp80

gp80-NT647+IL-6 = target: T5, gp80-NT647+IL-6 (Homo sapiens, UniProt P08887;P05231, NT647 dye on primary amines of lysine residues (NHS ester)); test: as above; details: both partners purified
T5 construct: gp80, as m9; interleukin-6 (IL-6), as m2; also called mixture of gp80-NT647 and IL-6; source: mixture of labelled gp80 and IL-6

gp80-NT647 = target: T6, gp80-NT647 (Homo sapiens, UniProt P08887, NT647 dye on primary amines of lysine residues (NHS ester)); test: as above; details: both partners purified
T6 construct: IL-6 receptor gp80 (CD126); also called gp80 labelled with NT647; source: labelled with the Monolith labelling Red NHS kit

gp80 = target: T7, gp80 (Homo sapiens, UniProt P08887); test: BLI; VHH6 captured through its His-tag on Ni-NTA tips; FusionIL-6, IL-6, gp80 and IL-6+gp80 in solution; Octet 384 Red; details: both partners purified
T7 construct: IL-6 receptor gp80 (CD126), soluble; also called CD126; IL-6 specific receptor

[2] = target: T8, IL-6–gp80 complex (gp80 construct not stated) (Homo sapiens, UniProt P05231;P08887); test: as above; details: both partners purified
T8 construct: interleukin-6 (IL-6), as m2; gp80, as m5; also called dimeric complex IL-6–gp80; source: mixture of IL-6 and gp80

gp80-hscFc = target: T9, gp80-hscFc (UniProt P08887); test: ELISA; IL-6, gp80 or FusionIL-6 coated at 2 μg/mL in carbonate buffer overnight at 4 °C; supernatant from HEK cells or purified VHHs added; anti-llama-HRP or anti-His-HRP; includes the initial screen
T9 construct: IL-6 receptor gp80 (CD126); hscFc is not explained in the text

IL-6 with gp80-hscFc = target: T10, IL-6 with gp80-hscFc (UniProt P05231;P08887); test: ELISA; IL-6 coated overnight and VHH6 added with gp80-hscFc, or gp80-hscFc coated overnight and VHH6 added with IL-6
T10 construct: interleukin-6 (IL-6), as m2; gp80 of gp80-hscFc, as m4; also called IL-6–gp80 complex (ELISA); source: one partner coated on the plate, the other added together with VHH6
T10 sequence (P05231 30-212, chain 1 of 2): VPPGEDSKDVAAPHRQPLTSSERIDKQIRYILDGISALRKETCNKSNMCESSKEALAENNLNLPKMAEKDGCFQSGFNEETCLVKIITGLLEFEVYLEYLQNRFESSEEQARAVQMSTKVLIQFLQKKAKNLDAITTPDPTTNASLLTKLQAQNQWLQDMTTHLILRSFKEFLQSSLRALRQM
T10 sequence (P08887 20-468, chain 2 of 2): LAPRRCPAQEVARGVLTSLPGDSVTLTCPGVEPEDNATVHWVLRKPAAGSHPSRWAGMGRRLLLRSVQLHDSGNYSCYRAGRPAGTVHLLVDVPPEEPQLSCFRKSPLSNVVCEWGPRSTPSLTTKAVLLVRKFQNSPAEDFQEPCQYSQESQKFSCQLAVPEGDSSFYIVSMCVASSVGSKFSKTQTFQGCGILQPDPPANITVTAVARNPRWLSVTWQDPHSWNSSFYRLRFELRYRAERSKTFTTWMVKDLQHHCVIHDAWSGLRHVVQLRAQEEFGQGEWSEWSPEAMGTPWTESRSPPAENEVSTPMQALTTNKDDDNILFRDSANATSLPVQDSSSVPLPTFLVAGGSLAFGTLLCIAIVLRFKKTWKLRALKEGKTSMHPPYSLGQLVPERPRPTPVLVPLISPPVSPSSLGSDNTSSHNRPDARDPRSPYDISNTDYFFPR

T2 sequence (P05231 28-212, one chain of several): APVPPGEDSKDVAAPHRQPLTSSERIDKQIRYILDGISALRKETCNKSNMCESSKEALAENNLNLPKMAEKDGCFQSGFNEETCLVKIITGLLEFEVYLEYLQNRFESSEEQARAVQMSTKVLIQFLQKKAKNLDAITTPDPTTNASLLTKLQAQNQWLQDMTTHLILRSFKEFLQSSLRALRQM
T3 sequence (P05231 30-212): as the sequence (P05231 30-212, chain 1 of 2) above
T4 sequence (P05231 30-212, chain 1 of 2): as above
T4 sequence (P08887 20-468, chain 2 of 2): as the sequence (P08887 20-468, chain 2 of 2) above
T5 sequence (P08887 20-468, chain 1 of 2): as the sequence (P08887 20-468, chain 2 of 2) above
T5 sequence (P05231 30-212, chain 2 of 2): as the sequence (P05231 30-212, chain 1 of 2) above
T6 sequence (P08887 20-468): as the sequence (P08887 20-468, chain 2 of 2) above
T9 sequence (P08887 20-365): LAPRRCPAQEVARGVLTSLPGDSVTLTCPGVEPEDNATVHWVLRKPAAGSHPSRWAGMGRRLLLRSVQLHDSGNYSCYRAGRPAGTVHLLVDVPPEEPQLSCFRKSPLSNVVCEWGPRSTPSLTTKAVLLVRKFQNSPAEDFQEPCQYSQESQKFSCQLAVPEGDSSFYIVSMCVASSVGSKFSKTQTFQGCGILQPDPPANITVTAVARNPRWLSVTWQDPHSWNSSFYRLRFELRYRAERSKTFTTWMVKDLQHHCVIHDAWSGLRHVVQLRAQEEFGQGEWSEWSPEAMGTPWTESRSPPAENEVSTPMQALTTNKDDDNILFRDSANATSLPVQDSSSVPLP

B2: VHH6 Y27A mutant (VHH)
VHH: DVQFVESGGGSVHAGGSLRLNCATSGAIYSTYCMGWFRQAPGKEREGVAHIYTNSGRTYYADSVKGRFTISQDNAKNTVYLQMNSLKPEDTAIYYCAARPSIRCASFSATEYKDWGQGTQVTVSS
notes: source: Expi-HEK cells, small scale transient expression, in supernatant; not shown: His6 (TEV-6His), C-terminal, kept
fold increase of the dissociation rate against VHH6 [1]: 1.9 fold

B3: VHH6 double mutant Asn74Ala/Ser101Ala (VHH)
VHH: B2 VHH with A27Y, N74A, S101A
notes: also called double mutant 74/101; source: Expi-HEK cells, small scale transient expression, in supernatant; not shown: His6 (TEV-6His), C-terminal, kept
fold increase of the dissociation rate against VHH6 [1]: 3.8 fold

The remaining lines, values ahead:

koff (IL-6): 0.045 s⁻¹
B1: gp80V4 (receptor)
chain: GLAPRRCPAQEVARGAGAGDVPPEEPQLSCFRKSPLSNVVCEWGPRSTPSLTTKAVLLVRKFQNSPAEDFQEPCQYSQESQKFSCQLAVPEGDSSFYIVSMCVASSVGSKFSKTQTFQGAGILQPDPPANITVTAVARNPRWLSVTWQDPHSWNSSFYRLRFELRYRAERSKTFTTWMVKDLQHHAVIHDAWSGLRHVVQLRAQEEFGQGEWSEWSPEAMGTPWTESRSPP
modifications: N-glycosylated, high-mannose (Expi-HEK/CHO with kifunensine) for crystallography and HDX-MS. The limits and engineered changes are not given, so they are taken from the deposited 5FUC entity 2: D1 …

fold increase of the dissociation rate against VHH6 [1]: 4.3 fold
B4: VHH6 double mutant Ser101Ala/Lys113Ala (VHH)
VHH: B2 VHH with A27Y, S101A, K113A
notes: also called double mutant 113/101; source: Expi-HEK cells, small scale transient expression, in supernatant; not shown: His6 (TEV-6His), C-terminal, kept

binding result (IL-6-NT647): no binding (tested: up to 20 μM VHH6)
binding result (IL-6-NT647+gp80): binds
binding result (gp80-NT647+IL-6): binds
binding result (gp80-NT647): no binding (tested: up to 20 μM VHH6)
binding result (gp80): no binding
binding result [2]: binds
binding result (gp80-hscFc): no binding
binding result (IL-6 with gp80-hscFc): binds
B5: VHH6 (VHH)
VHH: B2 VHH with A27Y
notes: camelid single domain antibody; The His tag is named on VHH6 for the Octet and the NTA-chip SPR; also called locking antibody; source: Expi-HEK cells, transiently transfected; in supernatant (SPR on the NTA chip) or purified; not shown: His6 (TEV-6His), C-terminal, kept
